Values of other authors in patent US20080213253A1, “COMBINATION THERAPY FOR THE TREATMENT OF CANCER” (DYAX CORP., priority 2007, published 2008).

Experiments:
Tie1 = Tie1 (Homo sapiens, UniProt P35590); details: statement in words, no data shown
[1] = biological target: Tie complex (Tie1 and Tie2) (Homo sapiens, UniProt P35590); details: statement in words, no data shown
Tie complex (Tie1 and Tie2), sequence (P35590 22-1138, one chain of several): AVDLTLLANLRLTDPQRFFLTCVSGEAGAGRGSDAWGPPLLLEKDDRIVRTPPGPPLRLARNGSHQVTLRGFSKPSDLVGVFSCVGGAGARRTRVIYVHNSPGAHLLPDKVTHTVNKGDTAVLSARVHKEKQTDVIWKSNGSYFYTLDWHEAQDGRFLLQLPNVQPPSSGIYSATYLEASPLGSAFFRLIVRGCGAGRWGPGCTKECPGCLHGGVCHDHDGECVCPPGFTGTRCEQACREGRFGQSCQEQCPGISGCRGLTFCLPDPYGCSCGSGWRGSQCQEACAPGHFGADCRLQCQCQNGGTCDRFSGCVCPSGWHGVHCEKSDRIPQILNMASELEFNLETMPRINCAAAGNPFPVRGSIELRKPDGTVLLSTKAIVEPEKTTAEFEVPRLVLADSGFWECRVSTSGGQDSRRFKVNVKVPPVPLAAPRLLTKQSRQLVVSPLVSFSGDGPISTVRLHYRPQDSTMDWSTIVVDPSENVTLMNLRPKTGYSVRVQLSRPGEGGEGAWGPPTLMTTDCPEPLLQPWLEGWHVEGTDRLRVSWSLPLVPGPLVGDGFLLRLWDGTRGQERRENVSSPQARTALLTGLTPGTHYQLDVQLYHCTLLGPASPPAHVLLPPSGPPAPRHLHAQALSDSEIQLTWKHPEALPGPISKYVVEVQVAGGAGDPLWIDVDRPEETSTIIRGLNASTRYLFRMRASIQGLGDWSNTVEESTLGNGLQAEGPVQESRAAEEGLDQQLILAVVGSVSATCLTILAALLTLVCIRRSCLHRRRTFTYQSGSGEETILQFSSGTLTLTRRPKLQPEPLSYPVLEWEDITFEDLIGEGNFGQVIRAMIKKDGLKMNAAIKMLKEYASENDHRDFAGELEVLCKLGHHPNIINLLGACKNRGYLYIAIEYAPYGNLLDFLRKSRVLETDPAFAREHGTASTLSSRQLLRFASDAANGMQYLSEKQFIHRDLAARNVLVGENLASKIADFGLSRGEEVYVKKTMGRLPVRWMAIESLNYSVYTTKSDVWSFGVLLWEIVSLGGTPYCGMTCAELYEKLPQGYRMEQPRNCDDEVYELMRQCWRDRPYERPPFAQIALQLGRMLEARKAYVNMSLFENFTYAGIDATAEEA

Tie1, sequence (P35590 22-1138): as the sequence (P35590 22-1138, one chain of several) above

Tie complex formation [1]: induce Tie complex formation
B1: M0044-B08: Tie1 ectodomain-binding antibody; variable domains SEQ ID NO:1 and 3 (antibody, V domains shown)
VL: QDIQMTQSPSFLSASVGDRVTISCRASQYISIYLNWYQQRPGEAPKLLINAASSLQSGDPSRFSGSGSGTDFTLTINSLQPDDFATYYCQQYKSYPLTFGEGTKVEIK
VH: EVQLLESGGGLVQPGGSLRLSCAASGFTFSAYGMGWVRQAPGKGLEWVSVISPSGGQTSYADSVKGRFTISRDNSKNTLYLQMNSLRAEDTALYYCAGGDRYGPLHYWGQGTLVTVSS
down modulation of Tie1 from the cell surface (Tie1): down modulation of Tie1 from the cell surface
